Measured values as given in the supplement of paper PMC5998384.

What was measured:
HeLa Kyoto [1] = experiment: solubility change mitosis vs G1/S (difference of NP-40 vs SDS log2 ratios) (log2 ratio difference); higher = more soluble in mitosis
HeLa Kyoto [2] = experiment: melting temperature (median over replicates), in situ; higher = more thermally stable
HeLa Kyoto [3] = experiment: thermal stability score vs G1/S (z-score of summed log2 fold changes over temperatures); higher = more thermally stable than in G1/S
HeLa Kyoto [4] = experiment: solubility in G1/S (NP-40 vs SDS abundance) (log2 ratio); higher = more soluble; conditions: cell cycle stage: G1/S
[5] = cell cycle stage: early G1 (4.5 h after nocodazole release)
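Wherever melting temperature (median over replicates), in situ is given: HeLa Kyoto cells synchronized by double thymidine or nocodazole block, proteins quantified by TMT10plex mass spectrometry, three independent biological replicates.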
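Wherever solubility change mitosis vs G1/S (difference of NP-40 vs SDS log2 ratios) is given: synchronized HeLa Kyoto cells (double thymidine block for G1/S, nocodazole release for mitosis), protein amounts in NP-40 versus SDS lysates quantified by mass spectrometry, three biological replicates.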
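Wherever solubility in G1/S (NP-40 vs SDS abundance) is given: HeLa Kyoto cells arrested at G1/S by double thymidine block, proteins quantified by TMT10plex mass spectrometry in mild NP-40 versus SDS extracts, three biological replicates.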
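Wherever thermal stability score vs G1/S (z-score of summed log2 fold changes over temperatures) is given: synchronized HeLa Kyoto cells, proteins quantified by TMT10plex mass spectrometry, three biological replicates, mitosis taken 0.5 h after nocodazole release, G1/S directly after double thymidine block.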

AGAP3, sequence (chain, as listed by the source): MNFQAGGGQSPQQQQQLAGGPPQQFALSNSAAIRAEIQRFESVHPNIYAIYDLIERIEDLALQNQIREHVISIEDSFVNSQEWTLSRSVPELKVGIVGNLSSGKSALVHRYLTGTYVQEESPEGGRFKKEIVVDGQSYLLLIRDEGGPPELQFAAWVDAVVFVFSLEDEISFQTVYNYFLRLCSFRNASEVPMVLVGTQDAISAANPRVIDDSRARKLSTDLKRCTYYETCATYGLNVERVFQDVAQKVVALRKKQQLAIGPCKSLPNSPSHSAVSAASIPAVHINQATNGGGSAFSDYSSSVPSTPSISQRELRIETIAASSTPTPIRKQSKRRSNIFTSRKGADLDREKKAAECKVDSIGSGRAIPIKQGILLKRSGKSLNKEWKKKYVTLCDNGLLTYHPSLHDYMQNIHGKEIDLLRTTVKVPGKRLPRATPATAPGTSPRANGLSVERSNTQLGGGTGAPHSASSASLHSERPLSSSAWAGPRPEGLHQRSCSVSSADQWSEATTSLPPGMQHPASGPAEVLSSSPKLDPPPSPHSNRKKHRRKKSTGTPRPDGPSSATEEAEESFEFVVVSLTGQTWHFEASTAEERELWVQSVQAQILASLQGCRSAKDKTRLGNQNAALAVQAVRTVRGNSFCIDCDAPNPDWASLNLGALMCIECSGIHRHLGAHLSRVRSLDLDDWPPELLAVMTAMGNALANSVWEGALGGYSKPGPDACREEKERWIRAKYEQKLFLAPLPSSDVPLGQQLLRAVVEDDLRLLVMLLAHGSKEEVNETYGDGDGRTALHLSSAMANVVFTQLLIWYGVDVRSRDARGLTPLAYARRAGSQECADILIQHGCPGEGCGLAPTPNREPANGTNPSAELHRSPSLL

Substance | solubility change mitosis (log2) (HeLa Kyoto [1]) | melting temperature (HeLa Kyoto [2]; cell cycle stage: G1/S) | melting temperature (HeLa Kyoto [2]; cell cycle stage: mitosis) | thermal stability score (HeLa Kyoto [3]; [5]) | thermal stability score (HeLa Kyoto [3]; cell cycle stage: mitosis) | solubility in G1/S (log2) (HeLa Kyoto [4])
MEQLSSANTRFALDLFLALSENNPAGNIFISPFSISSAMAMVFLGTRGNTAAQLSKTFHFNTVEEVHSRFQSLNADINKRGASYILKLANRLYGEKTYNFLPEFLVSTQKTYGADLASVDFQHASEDARKTINQWVKGQTEGKIPELLASGMVDNMTKLVLVNAIYFKGNWKDKFMKEATTNAPFRLNKKDRKTVKMMYQKKKFAYGYIEDLKCRVLELPYQGEELSMVILLPDDIEDESTGLKKIEEQLTLEKLHEWTKPENLDFIEVNVSLPRFKLEESYTLNSDLARLGVQDLFNSSKADLSGMSGARDIFISKIVHKSFVEVNEEGTEAAAATAGIATFCMLMPEENFTADHPFLFFIRHNSSGSILFLGRFSSP [SERPINB1] | -0.165 | 53.2 °C | 53.2 °C | 1.35 | -2.02 | 0.121
ITPR3 | 0.0432 | 48.6 °C | 50.1 °C | 0.858 | 2.41 | -0.508
MARENGESSSSWKKQAEDIKKIFEFKETLGTGAFSEVVLAEEKATGKLFAVKCIPKKALKGKESSIENEIAVLRKIKHENIVALEDIYESPNHLYLVMQLVSGGELFDRIVEKGFYTEKDASTLIRQVLDAVYYLHRMGIVHRDLKPENLLYYSQDEESKIMISDFGLSKMEGKGDVMSTACGTPGYVAPEVLAQKPYSKAVDCWSIGVIAYILLCGYPPFYDENDSKLFEQILKAEYEFDSPYWDDISDSAKDFIRNLMEKDPNKRYTCEQAARHPWIAGDTALNKNIHESVSAQIRKNFAKSKWRQAFNATAVVRHMRKLHLGSSLDSSNASVSSSLSLASQKDCLAPSTLCSFISSSSGVSGVGAERRPRPTTVTAVHSGSK [CAMK1D] | -0.0784 | 49.8 °C | 50.3 °C | 0.0756 | 0.252 | 0.0619
AGAP3 | -0.0465 | 49.3 °C | 49.9 °C | 0.047 | 0.315 | 0.259
MARAMAAAWPLLLVALLVLSWPPPGTGDVVVQAPTQVPGFLGDSVTLPCYLQVPNMEVTHVSQLTWARHGESGSMAVFHQTQGPSYSESKRLEFVAARLGAELRNASLRMFGLRVEDEGNYTCLFVTFPQGSRSVDIWLRVLAKPQNTAEVQKVQLTGEPVPMARCVSTGGRPPAQITWHSDLGGMPNTSQVPGFLSGTVTVTSLWILVPSSQVDGKNVTCKVEHESFEKPQLLTVNLTVYYPPEVSISGYDNNWYLGQNEATLTCDARSNPEPTGYNWSTTMGPLPPFAVAQGAQLLIRPVDKPINTTLICNVTNALGARQAELTVQVKEGPPSEHSGISRNAIIFLVLGILVFLILLGIGIYFYWSKCSREVLWHCHLCPSSTEHASASANGHVSYSAVSRENSSSQDPQTEGTR [PVR] | 0.164 | 55 °C | 55 °C | -1.4 | -2.91 | 0.109
MENSQLCKLFIGGLNVQTSESGLRGHFEAFGTLTDCVVVVNPQTKRSRCFGFVTYSNVEEADAAMAASPHAVDGNTVELKRAVSREDSARPGAHAKVKKLFVGGLKGDVAEGDLIEHFSQFGTVEKAEIIADKQSGKKRGFGFVYFQNHDAADKAAVVKFHPIQGHRVEVKKAVPKEDIYSGGGGGGSRSSRGGRGGRGRGGGRDQNGLSKGGGGGYNSYGGYGGGGGGGYNAYGGGGGGSSYGGSDYGNGFGGFGSYSQHQSSYGPMKSGGGGGGGGSSWGGRSNSGPYRGGYGGGGGYGGSSF [HNRNPA0] | 0.24 | 45.2 °C | 47 °C | 3.72 | 12.8 | -0.218
MSAPDEGRRDPPKPKGKTLGSFFGSLPGFSSARNLVANAHSSARARPAADPTGAPAAEAAQPQAQVAAHPEQTAPWTEKELQPSEKMVSGAKDLVCSKMSRAKDAVSSGVASVVDVAKGVVQGGLDTTRSALTGTKEVVSSGVTGAMDMAKGAVQGGLDTSKAVLTGTKDTVSTGLTGAVNVAKGTVQAGVDTTKTVLTGTKDTVTTGVMGAVNLAKGTVQTGVETSKAVLTGTKDAVSTGLTGAVNVARGSIQTGVDTSKTVLTGTKDTVCSGVTGAMNVAKGTIQTGVDTSKTVLTGTKDTVCSGVTGAMNVAKGTIQTGVDTSKTVLTGTKDTVCSGVTGAMNVAKGTIQTGVDTTKTVLTGTKNTVCSGVTGAVNLAKEAIQGGLDTTKSMVMGTKDTMSTGLTGAANVAKGAMQTGLNTTQNIATGTKDTVCSGVTGAMNLARGTIQTGVDTTKIVLTGTKDTVCSGVTGAANVAKGAVQGGLDTTKSVLTGTKDAVSTGLTGAVNVAKGTVQTGVDTTKTVLTGTKDTVCSGVTSAVNVAKGAVQGGLDTTKSVVIGTKDTMSTGLTGAANVAKGAVQTGVDTAKTVLTGTKDTVTTGLVGAVNVAKGTVQTGMDTTKTVLTGTKDTIYSGVTSAVNVAKGAVQTGLKTTQNIATGTKNTFGSGVTSAVNVAKGAAQTGVDTAKTVLTGTKDTVTTGLMGAVNVAKGTVQTSVDTTKTVLTGTKDTVCSGVTGAANVAKGAIQGGLDTTKSVLTGTKDAVSTGLTGAVKLAKGTVQTGMDTTKTVLTGTKDAVCSGVTGAANVAKGAVQMGVDTAKTVLTGTKDTVCSGVTGAANVAKGAVQTGLKTTQNIATGTKNTLGSGVTGAAKVAKGAVQGGLDTTKSVLTGTKDAVSTGLTGAVNLAKGTVQTGVDTSKTVLTGTKDTVCSGVTGAVNVAKGTVQTGVDTAKTVLSGAKDAVTTGVTGAVNVAKGTVQTGVDASKAVLMGTKDTVFSGVTGAMSMAKGAVQGGLDTTKTVLTGTKDAVSAGLMGSGNVATGATHTGLSTFQNWLPSTPATSWGGLTSSRTTDNGGEQTALSPQEAPFSGISTPPDVLSVGPEPAWEAAATTKGLATDVATFTQGAAPGREDTGLLATTHGPEEAPRLAMLQNELEGLGDIFHPMNAEEQAQLAASQPGPKVLSAEQGSYFVRLGDLGPSFRQRAFEHAVSHLQHGQFQARDTLAQLQDCFRLIEKAQQAPEGQPRLDQGSGASAEDAAVQEERDAGVLSRVCGLLRQLHTAYSGLVSSLQGLPAELQQPVGRARHSLCELYGIVASAGSVEELPAERLVQSREGVHQAWQGLEQLLEGLQHNPPLSWLVGPFALPAGGQ [PLIN4] | -0.0221 | 52.4 °C | 52.3 °C | 1.29 | 2.31 | 0.21
MASEELQKDLEEVKVLLEKATRKRVRDALTAEKSKIETEIKNKMQQKSQKKAELLDNEKPAAVVAPITTGYTVKISNYGWDQSDKFVKIYITLTGVHQVPTENVQVHFTERSFDLLVKNLNGKSYSMIVNNLLKPISVEGSSKKVKTDTVLILCRKKVENTRWDYLTQVEKECKEKEKPSYDTETDPSEGLMNVLKKIYEDGDDDMKRTINKAWVESREKQAKGDTEF [CACYBP] | -0.0888 | 52.2 °C | 52.2 °C | 0.00133 | -1.11 | 0.412
MAERGELDLTGAKQNTGVWLVKVPKYLSQQWAKASGRGEVGKLRIAKTQGRTEVSFTLNEDLANIHDIGGKPASVSAPREHPFVLQSVGGQTLTVFTESSSDKLSLEGIVVQRAECRPAASENYMRLKRLQIEESSKPVRLSQQLDKVVTTNYKPVANHQYNIEYERKKKEDGKRARADKQHVLDMLFSAFEKHQYYNLKDLVDITKQPVVYLKEILKEIGVQNVKGIHKNTWELKPEYRHYQGEEKSD [GTF2F2] | -0.0476 | 52.6 °C | 52.6 °C | 0.0893 | 0.0418 | 0.436
MAPPSVFAEVPQAQPVLVFKLTADFREDPDPRKVNLGVGAYRTDDCHPWVLPVVKKVEQKIANDNSLNHEYLPILGLAEFRSCASRLALGDDSPALKEKRVGGVQSLGGTGALRIGADFLARWYNGTNNKNTPVYVSSPTWENHNAVFSAAGFKDIRSYRYWDAEKRGLDLQGFLNDLENAPEFSIVVLHACAHNPTGIDPTPEQWKQIASVMKHRFLFPFFDSAYQGFASGNLERDAWAIRYFVSEGFEFFCAQSFSKNFGLYNERVGNLTVVGKEPESILQVLSQMEKIVRITWSNPPAQGARIVASTLSNPELFEEWTGNVKTMADRILTMRSELRARLEALKTPGTWNHITDQIGMFSFTGLNPKQVEYLVNEKHIYLLPSGRINVSGLTTKNLDYVATSIHEAVTKIQ [GOT1] | -0.116 | 58.1 °C | 64.1 °C | -1.19 | -1.58 | 0.34
GOLGA3 | -0.048 | 51.8 °C | 50.4 °C | 0.197 | -1.4 | 0.313
MADKEKKKKESILDLSKYIDKTIRVKFQGGREASGILKGFDPLLNLVLDGTIEYMRDPDDQYKLTEDTRQLGLVVCRGTSVVLICPQDGMEAIPNPFIQQQDA [LSM7] | 0.227 | 55.3 °C | 53.7 °C | -1.51 | -2.73 | 0.0991
MAAYKLVLIRHGESAWNLENRFSGWYDADLSPAGHEEAKRGGQALRDAGYEFDICFTSVQKRAIRTLWTVLDAIDQMWLPVVRTWRLNERHYGGLTGLNKAETAAKHGEAQVKIWRRSYDVPPPPMEPDHPFYSNISKDRRYADLTEDQLPSCESLKDTIARALPFWNEEIVPQIKEGKRVLIAAHGNSLRGIVKHLEGLSEEAIMELNLPTGIPIVYELDKNLKPIKPMQFLGDEETVRKAMEAVAAQGKAKK [PGAM1] | -0.15 | 55.7 °C | 57.8 °C | -0.0829 | -2.07 | 0.324
MYRALRLLARSRPLVRAPAAALASAPGLGGAAVPSFWPPNAARMASQNSFRIEYDTFGELKVPNDKYYGAQTVRSTMNFKIGGVTERMPTPVIKAFGILKRAAAEVNQDYGLDPKIANAIMKAADEVAEGKLNDHFPLVVWQTGSGTQTNMNVNEVISNRAIEMLGGELGSKIPVHPNDHVNKSQSSNDTFPTAMHIAAAIEVHEVLLPGLQKLHDALDAKSKEFAQIIKIGRTHTQDAVPLTLGQEFSGYVQQVKYAMTRIKAAMPRIYELAAGGTAVGTGLNTRIGFAEKVAAKVAALTGLPFVTAPNKFEALAAHDALVELSGAMNTTACSLMKIANDIRFLGSGPRSGLGELILPENEPGSSIMPGKVNPTQCEAMTMVAAQVMGNHVAVTVGGSNGHFELNVFKPMMIKNVLHSARLLGDASVSFTENCVVGIQANTERINKLMNESLMLVTALNPHIGYDKAAKIAKTAHKNGSTLKETAIELGYLTAEQFDEWVKPKDMLGPK [FH] | 0.0382 | 53.5 °C | 53.4 °C | 1.14 | -0.915 | 0.478
MSGEPGQTSVAPPPEEVEPGSGVRIVVEYCEPCGFEATYLELASAVKEQYPGIEIESRLGGTGAFEIEINGQLVFSKLENGGFPYEKDLIEAIRRASNGETLEKITNSRPPCVIL [MIEN1] | -0.0195 | 50.8 °C | 51.1 °C | -1.21 | 0.00566 | 0.353
MAAASGYTDLREKLKSMTSRDNYKAGSREAAAAAAAAVAAAAAAAAAAEPYPVSGAKRKYQEDSDPERSDYEEQQLQKEEEARKVKSGIRQMRLFSQDECAKIEARIDEVVSRAEKGLYNEHTVDRAPLRNKYFFGEGYTYGAQLQKRGPGQERLYPPGDVDEIPEWVHQLVIQKLVEHRVIPEGFVNSAVINDYQPGGCIVSHVDPIHIFERPIVSVSFFSDSALCFGCKFQFKPIRVSEPVLSLPVRRGSVTVLSGYAADEITHCIRPQDIKERRAVIILRKTRLDAPRLETKSLSSSVLPPSYASDRLSGNNRDPALKPKRSHRKADPDAAHRPRILEMDKEENRRSVLLPTHRRRGSFSSENYWRKSYESSEDCSEAAGSPARKVKMRRH [ALKBH5] | 0.0485 | 51 °C | 51.4 °C | 3.65 | -0.482 | -0.0973
UBR2 | -0.184 | 49.9 °C | 49.8 °C | 0.798 | 1.58 | -0.361
